Source: PMC5349611

Legend:
[1] = target: T1, IolR-His6 (Salmonella enterica serovar Typhimurium 14028) (UniProt Q8ZK65); assay: SPR (OneToTwo); details: EMSA: 100 ng DNA in 1x Tris/borate/EDTA, 20 ul, 45 min, 12% native PAA gel run at 4 C; SPR: streptavidin chip, 30 ul/min, 25 C, 0-330 nM IolR, buffer not in …
T1 sequence: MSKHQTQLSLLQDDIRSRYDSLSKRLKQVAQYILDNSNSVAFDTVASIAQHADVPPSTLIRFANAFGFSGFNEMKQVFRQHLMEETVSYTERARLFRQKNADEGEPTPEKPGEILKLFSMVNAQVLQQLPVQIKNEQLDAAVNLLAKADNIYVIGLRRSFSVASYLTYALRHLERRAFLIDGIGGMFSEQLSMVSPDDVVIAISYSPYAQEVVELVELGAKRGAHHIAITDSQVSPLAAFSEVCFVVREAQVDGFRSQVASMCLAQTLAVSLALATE

[2] = system: IolR-His6 (Salmonella enterica serovar Typhimurium 14028); assay: SPR (OneToTwo); details: EMSA: 100 ng DNA in 1x Tris/borate/EDTA, 20 ul, 45 min, 12% native PAA gel run at 4 C, SPR: streptavidin chip, 30 ul/min, 25 C, 0-330 nM IolR, buffer not in …
[3] = system: IolR-His6 (Salmonella enterica serovar Typhimurium 14028); assay: SPR (Interaction Map); details: EMSA: 100 ng DNA in 1x Tris/borate/EDTA, 20 ul, 45 min, 12% native PAA gel run at 4 C, SPR: streptavidin chip, 30 ul/min, 25 C, 0-330 nM IolR, buffer not in …

“GGTGTGTCATCAATGGTTGTCTGTTGTGACGAGGAAAGATTTGGAAAAAATTATGATCTATATAGCATTTTTGTTTCATTTGGTGTGGTATAAAAATTCAAATTTCAGGGGGGTTTCGGCACCACA (double strand) [PreiD SPR fragment]” was tested, and the Kd [1] was 0.321 µM.

For PreiD SPR fragment, the Kd ([2]; KD1, ka1 1.5e5 M-1s-1, kd1 4.9e-2 s-1) was 0.321 µM and the Kd ([2]; KD2, ka2 2.1e5 M-1s-1, kd2 1.4e-3 s-1) was 0.0066 µM.

Work on PiolT1 SPR fragment yielded a Kd ([3]; high-affinity component, peak weight 40.5%, ka 6.95e5 M-1s-1, kd 5.78e-4 s-1) of 0.00081 µM and a Kd ([3]; low-affinity component, peak weight 57.6%, ka 1.05e5 M-1s-1, kd 3.2e-2 s-1) of 0.312 µM.

“TTGCTCAGAACCCAGCCCGCCAGCAAATTCTGTACTGAAGGTAACCACAGCGCAATTTGAATGTTGTTAACTGTATGTTCAGTTCATTTGTGCTAATATGGTTATTTACGAAATTTTCGTTCTATTAGAGTATCATGCATGTCTAAACATCAAACTCAACTTTCCTTACTGCAGGATGATATCCGCAG (double strand) [PiolR SPR fragment]” was tested, and the Kd [1] was 0.425 µM.

Work on PiolR SPR fragment yielded a Kd ([2]; KD1, ka1 1.3e5 M-1s-1, kd1 5.5e-2 s-1) of 0.425 µM and a Kd ([2]; KD2, ka2 2.4e5 M-1s-1, kd2 1.4e-3 s-1) of 0.006 µM.
